Among the data in paper PMC7284552 are binding values, retold here.

For the data set, the system named is T1, A1S_0316 (putative IclR-type transcription factor) (Acinetobacter baumannii ATCC 17978), ORF:5d858888.
T1 sequence: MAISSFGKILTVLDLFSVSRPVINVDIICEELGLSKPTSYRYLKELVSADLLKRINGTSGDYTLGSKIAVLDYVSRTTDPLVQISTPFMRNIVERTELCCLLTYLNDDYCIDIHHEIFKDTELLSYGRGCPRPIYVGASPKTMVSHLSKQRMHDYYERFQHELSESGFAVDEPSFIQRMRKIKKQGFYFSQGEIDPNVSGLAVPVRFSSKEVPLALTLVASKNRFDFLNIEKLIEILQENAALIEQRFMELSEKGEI
Briefly: competition. The conditions noted are these: EMSA: 5 min at 37 C, 5% native PAGE (40:1), 100 V 1.5 h; binding buffer, salt and pH not stated.

As to “GGCAAGCGAAACAAAGAAGTTGTTCATATTTGCTAGTTGGGTAAAAAATTACCGAATTACAACGGAAATTGTAAGTAATTTTGTCAATAATTTACTTGATTAAAATTATCAAGCACTTGGAAAGTCTATCAAGTGTTTGTATGATTCAAATGTGAATAGCTTAAAAATAATACTGGGGTAAAAAAATATCTCAGGGGCCAATAAATTTAGGCTGAGCTTGAACAACAATTGTTATCTCTGGAGGATATCCATGAAATTGAGTCGTATTGCACTTGCTACTATGCTTGTTGCTGCTCCATT (double strand) [AbOmpA promoter (AbOmpAp), -231 to +100]”, the binding result is “binds”.
